{"source": "paper PMC8460140", "about": "“Identification of BiP as a CB1 Receptor-Interacting Protein That Fine-Tunes Cannabinoid Signaling in the Mouse Brain” (The Journal of Neuroscience, 2021)", "binders": {"B1": {"name": "His6-tagged CB1R-CTD (amino acids 400-472), labeled with 5-IAF (domain or fragment, UniProt P21554 400-472, looked up)", "chain": "RSKDLRHAFRSMFPSCEGTAQPLDNSMGDSDCLHKHANNAASVHRAAESCIKSTVKIAKVTMSVSTDTSAEAL", "modifications": "labeled with 5-(iodoacetamido)fluorescein (5-IAF); labeled residue not stated", "notes": "pBH4 vector; also called 5-IAF-CB1R-CTD; 5-IAF-labeled CB1R-CTD"}}, "biological_target": "T1, His6-tagged BiP-IR (amino acids 497-654), recombinant (UniProt P11021 497-654)", "T1 construct": "BiP (GRP78, Hspa5), amino acids 497-654; pBH4 vector; also called unlabeled BiP-IR", "T1 sequence (looked up)": "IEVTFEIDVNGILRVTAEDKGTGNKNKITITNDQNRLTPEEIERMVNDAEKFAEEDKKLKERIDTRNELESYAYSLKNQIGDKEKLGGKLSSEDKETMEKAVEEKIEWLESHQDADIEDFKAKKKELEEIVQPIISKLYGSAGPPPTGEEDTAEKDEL", "assay": "fluorescence polarisation; saturation binding: constant 100 nM 5-IAF-CB1R-CTD, increasing amounts of unlabeled BiP or BiP-IR", "details": "both partners purified"}
{"binder": "B1", "values": [{"measurement": "binding result", "result": "binds"}]}
